# Measured values as given in US6677440.
# Key:
# prourokinase = prourokinase (UniProt P00749)
# [1] = target: blood clotting factor VII (UniProt P08709)
# Sequence of blood clotting factor VII (P08709 61-466): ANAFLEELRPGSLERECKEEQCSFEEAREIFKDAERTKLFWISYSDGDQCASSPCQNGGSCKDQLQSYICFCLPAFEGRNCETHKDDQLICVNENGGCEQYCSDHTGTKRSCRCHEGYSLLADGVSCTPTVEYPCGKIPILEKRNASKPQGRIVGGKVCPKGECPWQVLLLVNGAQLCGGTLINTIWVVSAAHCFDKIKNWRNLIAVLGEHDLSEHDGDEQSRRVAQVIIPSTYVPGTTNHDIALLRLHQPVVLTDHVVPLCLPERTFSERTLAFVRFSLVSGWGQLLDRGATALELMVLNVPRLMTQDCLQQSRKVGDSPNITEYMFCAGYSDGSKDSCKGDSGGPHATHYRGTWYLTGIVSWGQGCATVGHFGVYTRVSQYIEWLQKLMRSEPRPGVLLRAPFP
# Sequence of proenzyme form of the factor VII-activating protease (chain, as listed by the source): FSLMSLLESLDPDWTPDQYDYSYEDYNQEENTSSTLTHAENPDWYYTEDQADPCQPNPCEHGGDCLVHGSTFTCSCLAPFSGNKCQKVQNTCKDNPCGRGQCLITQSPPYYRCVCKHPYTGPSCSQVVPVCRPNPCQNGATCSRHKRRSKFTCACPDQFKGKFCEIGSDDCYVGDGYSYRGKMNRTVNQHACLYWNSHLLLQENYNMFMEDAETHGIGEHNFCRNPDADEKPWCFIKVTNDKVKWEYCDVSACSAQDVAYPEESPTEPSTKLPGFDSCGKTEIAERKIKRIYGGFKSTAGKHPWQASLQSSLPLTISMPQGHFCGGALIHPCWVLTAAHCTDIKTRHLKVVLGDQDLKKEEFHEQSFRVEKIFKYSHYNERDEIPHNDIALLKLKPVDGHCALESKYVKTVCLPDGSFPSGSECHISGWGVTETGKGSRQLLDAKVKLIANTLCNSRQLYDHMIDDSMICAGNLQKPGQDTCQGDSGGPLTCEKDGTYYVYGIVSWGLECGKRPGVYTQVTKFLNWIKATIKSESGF
substance,measurement,setting,value
proenzyme form of the factor VII-activating protease,"activation of prourokinase, with subsequent detection of urokinase (activity tests of Example 1)",prourokinase,The activity tests (see Example 1) confirmed the nativity of the protein in the sense of the retainment of the biological activities
same,"activation of factor VII, with subsequent detection of activated factor VII (activity tests of Example 1)",[1],The activity tests (see Example 1) confirmed the nativity of the protein in the sense of the retainment of the biological activities
